Experimental data published in paper PMC5651819, “AtSPX1 affects the AtPHR1–DNA-binding equilibrium by binding monomeric AtPHR1 in solution”.

What was measured:
MBP-AtdPHR1 = MBP-AtdPHR1 (Arabidopsis thaliana, UniProt Q94CL7 208-362); assay: SPR; 1:1 fit at 2.5 nM protein, n = 3; ka 3.5e4 M-1 s-1, kd 0.00049 s-1; SPR (Biacore 3000, SA chip, ~500 RU DNA): 10 mM HEPES pH 7.5, 200 mM NaCl, 0.01% Surfactant P-20, 25 C, 40 ul/min, with or without Pi/InsP6; details: protein: recombinant; tags: N-terminal MBP (pMAL-c2x); chain copies: 2; label: 5'-biotin on strand 1; blunt
Chain of MBP-AtdPHR1 (Q94CL7 208-362): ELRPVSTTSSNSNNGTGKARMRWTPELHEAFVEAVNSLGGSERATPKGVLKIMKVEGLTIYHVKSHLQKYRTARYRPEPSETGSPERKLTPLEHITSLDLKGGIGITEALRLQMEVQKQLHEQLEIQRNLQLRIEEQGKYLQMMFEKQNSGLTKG

GST-AtSPX1 = target: T1, GST-AtSPX1 (Arabidopsis thaliana, UniProt Q8LBH4 1-256); assay: SPR; ~1000 nM GST-AtSPX1 after buffer, with or without 5 mM Pi; low near-baseline signal taken as non-specific; SPR (Biacore 3000, SA chip, ~500 RU DNA): 10 mM HEPES pH 7.5, 200 mM NaCl, 0.01% Surfactant P-20, 25 C, 40 ul/min, with or without Pi/InsP6; details: protein: recombinant; tags: N-terminal GST (pGEX-2T); label: 5'-biotin on strand 1; blunt
T1 sequence: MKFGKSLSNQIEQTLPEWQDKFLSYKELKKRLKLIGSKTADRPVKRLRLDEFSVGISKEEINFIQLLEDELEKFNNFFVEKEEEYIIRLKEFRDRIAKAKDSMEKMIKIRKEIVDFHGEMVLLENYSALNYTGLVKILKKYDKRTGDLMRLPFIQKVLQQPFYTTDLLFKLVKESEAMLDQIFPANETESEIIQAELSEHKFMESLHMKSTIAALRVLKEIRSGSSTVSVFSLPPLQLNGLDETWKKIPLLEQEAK

B1: 2x P1BS probe (dsDNA)
DNA 1: CAGAGAAAAAAGGATATTCTAATTAGAAACCTTAAGAATATTCTTTTTAATCCC
DNA 2: GGGATTAAAAAGAATATTCTTAAGGTTTCTAATTAGAATATCCTTTTTTCTCTG
Which results are given for B1?
Kd (MBP-AtdPHR1): 14 ± 2.4 nM; binding result (GST-AtSPX1): no binding
